Results reported in patent US20260001928A1 (CORTERIA PHARMACEUTICALS, priority 2022, published 2026).
*1 amine or outer side, *2 acyl side, *3 side chain or, on linkers, in order; H or OH if unused. Side-chain parts run from the residue outwards. [ ]: non-standard residue; d: D form. The star is where a group is joined. C16 diacid = O=C(O)CCCCCCCCCCCCCCC(=O)*; γGlu = O=C(O)[C@H](CCC(=O)[*:2])N[*:1]; C14 diacid = O=C(O)CCCCCCCCCCCCC(=O)*; Api = NC1(C(=O)O)CCNCC1; AEEA = NCCOCCOCC(=O)O; Aib = CC(C)(N)C(=O)O

T1: CRF1R receptor (UniProt P34998 24-415, limits assumed)
T1 sequence (looked up): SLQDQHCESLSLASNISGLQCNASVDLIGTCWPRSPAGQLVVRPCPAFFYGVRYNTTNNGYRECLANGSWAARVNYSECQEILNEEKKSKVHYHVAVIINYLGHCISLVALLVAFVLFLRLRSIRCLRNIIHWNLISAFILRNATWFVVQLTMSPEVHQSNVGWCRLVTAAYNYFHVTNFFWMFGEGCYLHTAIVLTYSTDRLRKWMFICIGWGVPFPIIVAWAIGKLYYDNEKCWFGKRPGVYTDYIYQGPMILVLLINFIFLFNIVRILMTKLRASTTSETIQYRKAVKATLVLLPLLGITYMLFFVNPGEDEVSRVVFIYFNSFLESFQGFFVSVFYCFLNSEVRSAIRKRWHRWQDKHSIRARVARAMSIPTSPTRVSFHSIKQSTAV


What was measured:
[1] = molecular target: human corticotropin-releasing factor 2a (CRF2a receptor) (human), Q13324; experiment: cell-based or functional assay
Sequence of human corticotropin-releasing factor 2a (CRF2a receptor) (human), Q13324 (Q13324 20-411): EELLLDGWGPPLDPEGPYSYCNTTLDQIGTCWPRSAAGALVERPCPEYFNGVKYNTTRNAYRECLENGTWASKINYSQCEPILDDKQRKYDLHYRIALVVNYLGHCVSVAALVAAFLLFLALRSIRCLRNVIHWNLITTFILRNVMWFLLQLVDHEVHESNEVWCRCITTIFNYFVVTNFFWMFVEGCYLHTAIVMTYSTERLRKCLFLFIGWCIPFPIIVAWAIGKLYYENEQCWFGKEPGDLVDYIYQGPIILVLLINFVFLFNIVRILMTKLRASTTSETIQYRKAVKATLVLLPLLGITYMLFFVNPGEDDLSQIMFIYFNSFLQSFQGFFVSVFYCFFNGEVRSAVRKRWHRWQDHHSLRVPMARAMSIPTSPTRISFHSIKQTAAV

[2] = molecular target: T1, CRF1R receptor; experiment: cell-based or functional assay

EC50 [nM] (cAMP) [1]	Emax (% I) [2] [%]	Binder
1.34	13	Ac-IVLSLD[dV]PIKLK([γGlu-C14 diacid])KILLEQEKQKAQREQAETN[Api]QILAQV-NH2 (SMILES CC[C@H](C)[C@H](NC(C)=O)C(=O)N[C@H](C(=O)N[C@@H](CC(C)C)C(=O)N[C@@H](CO)C(=O)N[C@@H](CC(C)C)C(=O)N[C@@H](CC(=O)O)C(=O)N[C@@H](C(=O)N1CCC[C@H]1C(=O)N[C@H](C(=O)N[C@@H](CCCCN)C(=O)N[C@@H](CC(C)C)C(=O)N[C@@H](CCCCNC(=O)CC[C@H](NC(=O)CCCCCCCCCCCCC(=O)O)C(=O)O)C(=O)N[C@@H](CCCCN)C(=O)N[C@H](C(=O)N[C@@H](CC(C)C)C(=O)N[C@@H](CC(C)C)C(=O)N[C@@H](CCC(=O)O)C(=O)N[C@@H](CCC(N)=O)C(=O)N[C@@H](CCC(=O)O)C(=O)N[C@@H](CCCCN)C(=O)N[C@@H](CCC(N)=O)C(=O)N[C@@H](CCCCN)C(=O)N[C@@H](C)C(=O)N[C@@H](CCC(N)=O)C(=O)N[C@@H](CCCNC(=N)N)C(=O)N[C@@H](CCC(=O)O)C(=O)N[C@@H](CCC(N)=O)C(=O)N[C@@H](C)C(=O)N[C@@H](CCC(=O)O)C(=O)N[C@H](C(=O)N[C@@H](CC(N)=O)C(=O)NC1(C(=O)N[C@@H](CCC(N)=O)C(=O)N[C@H](C(=O)N[C@@H](CC(C)C)C(=O)N[C@@H](C)C(=O)N[C@@H](CCC(N)=O)C(=O)N[C@H](C(N)=O)C(C)C)[C@@H](C)CC)CCNCC1)[C@@H](C)O)[C@@H](C)CC)[C@@H](C)CC)C(C)C)C(C)C) [SEQ ID NO 169]
1.28	5	Ac-IVLSLD[dV]PIKLK([γGlu-C14 diacid])KILLEQEKQK[Aib]QREQAETN[Api]QILAQV-NH2 (SMILES CC[C@H](C)[C@H](NC(C)=O)C(=O)N[C@H](C(=O)N[C@@H](CC(C)C)C(=O)N[C@@H](CO)C(=O)N[C@@H](CC(C)C)C(=O)N[C@@H](CC(=O)O)C(=O)N[C@@H](C(=O)N1CCC[C@H]1C(=O)N[C@H](C(=O)N[C@@H](CCCCN)C(=O)N[C@@H](CC(C)C)C(=O)N[C@@H](CCCCNC(=O)CC[C@H](NC(=O)CCCCCCCCCCCCC(=O)O)C(=O)O)C(=O)N[C@@H](CCCCN)C(=O)N[C@H](C(=O)N[C@@H](CC(C)C)C(=O)N[C@@H](CC(C)C)C(=O)N[C@@H](CCC(=O)O)C(=O)N[C@@H](CCC(N)=O)C(=O)N[C@@H](CCC(=O)O)C(=O)N[C@@H](CCCCN)C(=O)N[C@@H](CCC(N)=O)C(=O)N[C@@H](CCCCN)C(=O)NC(C)(C)C(=O)N[C@@H](CCC(N)=O)C(=O)N[C@@H](CCCNC(=N)N)C(=O)N[C@@H](CCC(=O)O)C(=O)N[C@@H](CCC(N)=O)C(=O)N[C@@H](C)C(=O)N[C@@H](CCC(=O)O)C(=O)N[C@H](C(=O)N[C@@H](CC(N)=O)C(=O)NC1(C(=O)N[C@@H](CCC(N)=O)C(=O)N[C@H](C(=O)N[C@@H](CC(C)C)C(=O)N[C@@H](C)C(=O)N[C@@H](CCC(N)=O)C(=O)N[C@H](C(N)=O)C(C)C)[C@@H](C)CC)CCNCC1)[C@@H](C)O)[C@@H](C)CC)[C@@H](C)CC)C(C)C)C(C)C) [SEQ ID NO 170]
0.77	5	Ac-IVLSLD[dV]PIKLK([γGlu-C16 diacid])KILLEQEKQAKQREQAETN[Aib]QILAQV-NH2 (SMILES CC[C@H](C)[C@H](NC(C)=O)C(=O)N[C@H](C(=O)N[C@@H](CC(C)C)C(=O)N[C@@H](CO)C(=O)N[C@@H](CC(C)C)C(=O)N[C@@H](CC(=O)O)C(=O)N[C@@H](C(=O)N1CCC[C@H]1C(=O)N[C@H](C(=O)N[C@@H](CCCCN)C(=O)N[C@@H](CC(C)C)C(=O)N[C@@H](CCCCNC(=O)CC[C@H](NC(=O)CCCCCCCCCCCCCCC(=O)O)C(=O)O)C(=O)N[C@@H](CCCCN)C(=O)N[C@H](C(=O)N[C@@H](CC(C)C)C(=O)N[C@@H](CC(C)C)C(=O)N[C@@H](CCC(=O)O)C(=O)N[C@@H](CCC(N)=O)C(=O)N[C@@H](CCC(=O)O)C(=O)N[C@@H](CCCCN)C(=O)N[C@@H](CCC(N)=O)C(=O)N[C@@H](C)C(=O)N[C@@H](CCCCN)C(=O)N[C@@H](CCC(N)=O)C(=O)N[C@@H](CCCNC(=N)N)C(=O)N[C@@H](CCC(=O)O)C(=O)N[C@@H](CCC(N)=O)C(=O)N[C@@H](C)C(=O)N[C@@H](CCC(=O)O)C(=O)N[C@H](C(=O)N[C@@H](CC(N)=O)C(=O)NC(C)(C)C(=O)N[C@@H](CCC(N)=O)C(=O)N[C@H](C(=O)N[C@@H](CC(C)C)C(=O)N[C@@H](C)C(=O)N[C@@H](CCC(N)=O)C(=O)N[C@H](C(N)=O)C(C)C)[C@@H](C)CC)[C@@H](C)O)[C@@H](C)CC)[C@@H](C)CC)C(C)C)C(C)C) [SEQ ID NO 166]
1.15	7	Ac-IVLSLD[dV]PIKLK([γGlu-C16 diacid])KILLEQEKQKKQAEQAETN[Aib]QILAQV-NH2 (SMILES CC[C@H](C)[C@H](NC(C)=O)C(=O)N[C@H](C(=O)N[C@@H](CC(C)C)C(=O)N[C@@H](CO)C(=O)N[C@@H](CC(C)C)C(=O)N[C@@H](CC(=O)O)C(=O)N[C@@H](C(=O)N1CCC[C@H]1C(=O)N[C@H](C(=O)N[C@@H](CCCCN)C(=O)N[C@@H](CC(C)C)C(=O)N[C@@H](CCCCNC(=O)CC[C@H](NC(=O)CCCCCCCCCCCCCCC(=O)O)C(=O)O)C(=O)N[C@@H](CCCCN)C(=O)N[C@H](C(=O)N[C@@H](CC(C)C)C(=O)N[C@@H](CC(C)C)C(=O)N[C@@H](CCC(=O)O)C(=O)N[C@@H](CCC(N)=O)C(=O)N[C@@H](CCC(=O)O)C(=O)N[C@@H](CCCCN)C(=O)N[C@@H](CCC(N)=O)C(=O)N[C@@H](CCCCN)C(=O)N[C@@H](CCCCN)C(=O)N[C@@H](CCC(N)=O)C(=O)N[C@@H](C)C(=O)N[C@@H](CCC(=O)O)C(=O)N[C@@H](CCC(N)=O)C(=O)N[C@@H](C)C(=O)N[C@@H](CCC(=O)O)C(=O)N[C@H](C(=O)N[C@@H](CC(N)=O)C(=O)NC(C)(C)C(=O)N[C@@H](CCC(N)=O)C(=O)N[C@H](C(=O)N[C@@H](CC(C)C)C(=O)N[C@@H](C)C(=O)N[C@@H](CCC(N)=O)C(=O)N[C@H](C(N)=O)C(C)C)[C@@H](C)CC)[C@@H](C)O)[C@@H](C)CC)[C@@H](C)CC)C(C)C)C(C)C) [SEQ ID NO 167]
5.79	0	Ac-IVLSLD[dV]PIKLK([AEEA-AEEA-γGlu-C14 diacid])KILLEQEKQKKQREQAETN[Aib]QILAQV-NH2 (SMILES CC[C@H](C)[C@H](NC(C)=O)C(=O)N[C@H](C(=O)N[C@@H](CC(C)C)C(=O)N[C@@H](CO)C(=O)N[C@@H](CC(C)C)C(=O)N[C@@H](CC(=O)O)C(=O)N[C@@H](C(=O)N1CCC[C@H]1C(=O)N[C@H](C(=O)N[C@@H](CCCCN)C(=O)N[C@@H](CC(C)C)C(=O)N[C@@H](CCCCNC(=O)COCCOCCNC(=O)COCCOCCNC(=O)CC[C@H](NC(=O)CCCCCCCCCCCCC(=O)O)C(=O)O)C(=O)N[C@@H](CCCCN)C(=O)N[C@H](C(=O)N[C@@H](CC(C)C)C(=O)N[C@@H](CC(C)C)C(=O)N[C@@H](CCC(=O)O)C(=O)N[C@@H](CCC(N)=O)C(=O)N[C@@H](CCC(=O)O)C(=O)N[C@@H](CCCCN)C(=O)N[C@@H](CCC(N)=O)C(=O)N[C@@H](CCCCN)C(=O)N[C@@H](CCCCN)C(=O)N[C@@H](CCC(N)=O)C(=O)N[C@@H](CCCNC(=N)N)C(=O)N[C@@H](CCC(=O)O)C(=O)N[C@@H](CCC(N)=O)C(=O)N[C@@H](C)C(=O)N[C@@H](CCC(=O)O)C(=O)N[C@H](C(=O)N[C@@H](CC(N)=O)C(=O)NC(C)(C)C(=O)N[C@@H](CCC(N)=O)C(=O)N[C@H](C(=O)N[C@@H](CC(C)C)C(=O)N[C@@H](C)C(=O)N[C@@H](CCC(N)=O)C(=O)N[C@H](C(N)=O)C(C)C)[C@@H](C)CC)[C@@H](C)O)[C@@H](C)CC)[C@@H](C)CC)C(C)C)C(C)C) [SEQ ID NO 171]
0.8	3	Ac-IVLSLD[dV]PIKLK([γGlu-C16 diacid])KILLEQEKQKEQREQAETN[Aib]QILAQV-NH2 (SMILES CC[C@H](C)[C@H](NC(C)=O)C(=O)N[C@H](C(=O)N[C@@H](CC(C)C)C(=O)N[C@@H](CO)C(=O)N[C@@H](CC(C)C)C(=O)N[C@@H](CC(=O)O)C(=O)N[C@@H](C(=O)N1CCC[C@H]1C(=O)N[C@H](C(=O)N[C@@H](CCCCN)C(=O)N[C@@H](CC(C)C)C(=O)N[C@@H](CCCCNC(=O)CC[C@H](NC(=O)CCCCCCCCCCCCCCC(=O)O)C(=O)O)C(=O)N[C@@H](CCCCN)C(=O)N[C@H](C(=O)N[C@@H](CC(C)C)C(=O)N[C@@H](CC(C)C)C(=O)N[C@@H](CCC(=O)O)C(=O)N[C@@H](CCC(N)=O)C(=O)N[C@@H](CCC(=O)O)C(=O)N[C@@H](CCCCN)C(=O)N[C@@H](CCC(N)=O)C(=O)N[C@@H](CCCCN)C(=O)N[C@@H](CCC(=O)O)C(=O)N[C@@H](CCC(N)=O)C(=O)N[C@@H](CCCNC(=N)N)C(=O)N[C@@H](CCC(=O)O)C(=O)N[C@@H](CCC(N)=O)C(=O)N[C@@H](C)C(=O)N[C@@H](CCC(=O)O)C(=O)N[C@H](C(=O)N[C@@H](CC(N)=O)C(=O)NC(C)(C)C(=O)N[C@@H](CCC(N)=O)C(=O)N[C@H](C(=O)N[C@@H](CC(C)C)C(=O)N[C@@H](C)C(=O)N[C@@H](CCC(N)=O)C(=O)N[C@H](C(N)=O)C(C)C)[C@@H](C)CC)[C@@H](C)O)[C@@H](C)CC)[C@@H](C)CC)C(C)C)C(C)C) [SEQ ID NO 168]
